Positions count from the first letter of the chain named.
Legend:
[1] = molecular target: vacant 70S ribosomes from E. coli MRE600 (E. coli); experiment: FRET; 25°C; 70S labelled at L23 with MDCC
[2] = molecular target: vacant 70S ribosomes from E. coli MRE600 (E. coli); experiment: FRET; 4°C; 70S labelled at L23 with MDCC
[3] = molecular target: Lep75-RNC (ribosome-nascent-chain complex carrying 75 N-terminal amino acids of leader peptidase) (E. coli | , UniProt P00803 1-75, f[3H]Met at the N-terminus; nascent chain bound to tRNA); experiment: 25°C
[4] = molecular target: vacant 70S ribosomes from E. coli MRE600 (E. coli); experiment: 25°C

B1: single-labelled SecYEG(Bpy) (complex)
chain 1: MAKQPGLDFQSAKGGLGELKRRLLFVIGALIVFRIGSFIPIPGIDAAVLAKLLEQQRGTIIEMFNMFSGGALSRASIFALGIMPYICASIIIQLLTVVHPTLAEIKKEGESGRRKISQYTRYGTLVLAIFQSIGIATGLPNMPGMQGLVINPGFAFYFTAVVSLVTGTMFLMWLGEQITERGIGNGISIIIFAGIVAGLPPAIAHTIEQARQGDLHFLVLLLVAVLVFAVTFFVVFVERGQRRIVVNYAKRQQGRRVYAAQSTHLPLKVNMAGVIPAIFASSIILFPATIASWFGGGTGWNWLTTISLYLQPGQPLYVLLYASAIIFFCFFYTALVFNPRETADNLKKSGAFVPGIRPGEQTAKYIDKVMTRLTLVGALYITFICLIPEFMRDAMKVPFYFGGTSLLIVVVVIMDFMAQVQTLMMSSQYESALKKANLKGYGR
chain 2: MSANTEAQGSGRGLEAMKWVVVVALLLVAIVGNYLYRDIMLPLRALAVVILIAAAGGVALLTTKGKATVAFAREARTEVRKVIWPTRQETLHTTLIVAAVTAVMSLILWGLDGILVRLVSFITGLRF
chain 3: MYEALLVVFLIVAIGLVGLIMLQQGKGADMGASFGAGASATLFGSSGSGNFMTRMTALLATLFFIISLVLGNINSNKTNKGSEWENLSAPAKTEQTQPAAPAKPTSDIPN
modifications: BODIPY FL (maleimide derivative) on Cys87
Kd [1]: 20 nM
Kd [2]: 10 nM

B2: double-labelled SecYEG(Bpy/Trp) (complex)
chain 1: B1 chain 1 with F286W
chain 2: B1 chain 2
chain 3: B1 chain 3
modifications: BODIPY FL (maleimide derivative) on Cys87
Kd [3]: 10 nM
Kd [4]: 20 nM

Reference: article PMC4218953 (2014)
